Measurements from the domain aggregation screens of Martell et al. (2025).

Experiment: soluble fraction after stress (log2 fold change); higher = more stays soluble; pooled small domains, quantitative proteomics
Conditions: stress: pH 4
Outline: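 Aggregation propensity is estimated from the fold change in each domain's soluble amount after acid stress. Pooled small-domain libraries were stressed at pH 4, and higher log2 values mean more stayed soluble.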

| Sequence | soluble fraction (log2) |
| --- | --- |
| HMKYEGEDEYYASLVTEKIAAIGTVTEESEDAIKEARAAYDALTSAQKKLVTNYDVLDEAEK | 0.302 |
| HMKTTKLEELDMQKEFILKNGKYGFGVYIGGKYIGLTDIGTVNSFKDSLQLPVVSLSDIDFKTFAEKF | -1.34 |
| HMTEKIEWYKEVLELEPNSKVFFPLARMLAEEQRFDEAVAVLEHGLERHGEFLEARLFFIELLHET | -2.04 |
| HMSSDLDQYMKNIRKQHNLSKREFAKQLGISAATIVRIENGITVSPSKNLISKLAYYLQKSEVEILQDIQS | -0.393 |
| HMESSKLQASIINYLERRPTQKFTAEELFKGLSLEKASVFNELVKELTSLERSHKVEITADDKFKIARPQ | 0.0446 |
| HMAIDLSLIPGNLLRELHGAVEDGDMYRIRELIRSISAVDEKVGKELLLLAERYDYERLLELVND | -1.03 |
| HMPTTLEGIEKYLSSGLIKGIGPHLAGKLVEAFGTRVFEVVEHQPERLRTVGGIGRTRAESITSAWRDQ | -0.141 |
| HMKTITLDEAQEIALAEVDGKVTRAVEETDDGRSYYEFDIITNDQKHELEVDASSGKITKNEIDEDYVPS | -0.0471 |
| HMNMEYQKAINHIVQMVKDGQLIVGSKIPSERDLSESLGIGRNSTREAISILRGMGLVESRHGSGNYIAKD | 0.22 |
| HMKPVSEMDNMEWVREQYFQNMIYEIGEWVKDKKTGIVGEIVKRGTNYVTIVQEDFSLHKIWLEDLETTE | -0.368 |
| HMRESDQSTVELSLERTIQEALMVNPRTSSVEEFSFEWGTGRVKVSFIVYSVDGEPFTVDSIIE | -1.19 |
| HMLVTQSITVPMAMSGIRLDAALAMLFPDHSRNRLKAWLDDGHILVDGAVWAGKQRLEGNEEITATLPEAK | -0.189 |
| HMNSKIIVESIIKSKNGIAKVADLVEGGVSRQSIKKMYADGYIKRISRGYYTLTSEPVSSDEQVISS | 0.39 |
| HMSMTLSVLDDVRGLSESRRKQLFHSFGSIKKLREQSKETLMSIPYLPEKVALELYDKLHEE | 0.272 |
| HMAITYETKVISGVNLRSAPSTSASVYQLIPKGENIHVVQKVNDYWLKVQTKDGKTGYISASSKYTNYIG | 0.0502 |
| HMTEEPISDGIKKLVEEWENIEGNLIMIFHGIQKHYGYVPRNVAKYVSEAIDVPLTRIYEILTFYNYFTM | -1.43 |
| HMRGETSYANDIIKRLKQANLIVVEGTLYPLLNRLKKDGLLHYEWRESQQGPPRKYYGLTEEGEA | 0.0328 |
| HMKQVNVVSVIGQSEANAKTTLTGLGLKVNVAYEEDTSKADGIVLKQSLEGGKTVNEGTTITITVNKIA | -0.567 |
| HMPQEMIEILATPNGWLRVRQGPGTNYPEITKVNSGEEFPLLEEKDSWFKIRIEEGQEGWISSQYAQKEE | -0.0319 |
| HMKFPIITAKQDSDGKFYWAQTTDKGKTYTFILDGDGKKFPIGGTMPDVKINENGYWSVNGSSTGVLANDL | -0.295 |
| HMSDIPEGYMSRVQLGDEWGIHLATFDKAVIAVKEKLGTVVFIDKSNNTTAGYSPEQQTIIYDWLAEN | 0.29 |
| HMREIEVNYAAGDSVRVIDGPLAGFIGVVSSVEPDKNKVNVTVSMFGRETPVELELDQVETLD | -0.669 |
| HMQDYISAEEAKSAALSASQVDSAGAAFSAAELGEKNGIPYYEVAFTADGLEYRYAIDAQTGTVIESSSSG | -0.164 |
| HMAHETIDVAALRVGMFVQLDLGWLSHPFPLSSFRISSEDQIATIRALGLKRVRWSSEQSDS | -2.26 |
| HMRGRFGNAAPARNLGDHPQGGAINVKAGRYGPYVSWGKVNATLPKDSDPEKVTLEEAVALIAAKQSGQG | 0.218 |
| HMHAPRIEVVQIDPEKIGALIGPGGKNIRRITEVTGANLDIDEDNSGKIRVYASDSEAMNRALQEIDLVT | -0.18 |

| Sequence | soluble fraction (log2) |
| --- | --- |
| HMTTSNPMNVTSAEAAFDNGTDRLNAFISGRTTSEERSTYFPLFVRETKEDFLRAVGRFNEYIANHG | 0.0839 |
| HMRDIGKNIRYYREKKGYSQEQLAQLLFVTRQTVSNYETSRSRPDVETLVKLAGLLDIDVTDLIYGPR | 0.0792 |
| HMQADTATITGNGVNMRSGPGTNYQIIDTIPKGTVAEVLSQQDGWVKIYSARISGWVSASYVEIKQT | 0.18 |
| HMISAQEQALRNLKLSNGMTWKALAKALGITERSILSYVAAPGTKGYREMPAEVWHKLENISGH | 0.143 |
| HMEALTPREREVLTLMGQGRSNAEIATLLSIAPRTAKVHVQNILSKLGATNRTEAVSLAVRQGLIS | -0.18 |
| HMTPGPFLVYITGAVERPNVLVTLDYGSRVIDALNAAGGSRIDANLDLVNLAQRLVDGDQIHVPTLR | -1.1 |
| HMFAQDKKFITYKVKEGETVQSISKALSITPYDLLKLNPDIKDNVSQDDLLIIPNKQYDPLGDI | 0.421 |
| HMTEELQDMESRIIEAAKRVFVRKGYEATKMSDIALEVGLGRTALHYYFRTKEMLFDAIFGRLMGV | -0.594 |
| HMAFKNGLLQTSKKVTLVRKVDGVTMRFDSLRAASVFLGRNKGYLSNVIKNGRTLDNYEIVVGE | 0.0346 |
| HMKSQVVAYSDFVKAVNQKQINEVQIQGDKIRAINKAGEEITVTWLQNDQKLMDDLLDNNVKTIFLE | -0.282 |
| HMNEIALETAIEDVESFIQMQNRNLAFSIDEDTDRAVVTVRDSDSGDVIRQIPSEEVLALAERIQDLQQD | -0.485 |
| HMKLTNNDFIRLKTFMYNNYGINLENKKTLIETRLAIVVKRLGFNDFKSYIDNLMRDKTGEQASIIVGKLT | -0.141 |
| HMDSKYLRIFSTLIDEMEKMSPGEQLQSERELSQRFQVSPMTVRRALHKLSTEGYTSAIPGKGTFVRK | -0.0388 |
| HMLPVYSITEAAERLDIPASTIKWYADRFASYISPSKGKGRKRFTPEDLATLQKIHELSQDHTTEEAEAML | -1.16 |
| HMSIESPEEFNAKFPPGSEIYATNIQKNAIVQSPANAKGDVEILANSMRLTINFRFISKRDT | 0.334 |
| HMVSVLGRRIKELRLQNSMTQMQLAKKLGYKGNSLVAGWELGKNYPSVSSIKRLSEIFDTDLMKYVG | 0.22 |
| HMTGIVVVDVVGQVGRPGLVSLPAGSRVADAITAAGGATPEADVSLLNQARLVIDGEQIRVPRPGEVIAA | 0.22 |
| HMDEEAIELTQEVMKLPPKQREVILLYYYHGLTGKEIAKALGISGAAVSKRLKQAKNQLHFALK | 0.0819 |
| HMDAEKHIVTPEAGLRLDRALTDALPNLSRSRVKQLINEGLVTTENKTITAPSYRVKYGDSFEISIPPPT | -0.134 |
| HMFRSTLEELKHQISGFLKANQSQEFTAQNLADGLRMTSIAEYKRVVNAMDALVRDGELTFDAGKYQYNPN | 0.252 |
| HMKVDRLVSMILILLEQQRVGAQELADRFEVSVRTIYRDMEAINQAGIPVRSTSGVGGGFEIM | -0.314 |
| HMELNESVLKALYEKFREMSGSKGFITEDEVIIQLEKENPDITPDQQAEIFKYLYDTPLQIY | -0.996 |
| HMELPMGTQLPPERELAQQMQVSRAVVNGGLAELAQQGFLEVRPRQGTFVADYRRKGNLSTLIAIMEY | 0.22 |
| HMAVIILDEPTLGLDPAVRISLWQAIQSARDSTMSAFLITTHYIKEVADYLSAVKILDHGREVASGNPSAL | -0.905 |
| HMTGRVKWYDATKGFGFVTSDEGGDVFLPKGALPAGVADLKTGQRIEFGVVDSRKGAQALGVK | -0.22 |
| HMDRVDGWLHDGKLYLRVVDYKTGKKSFDLAELRYGLGLQMLLYLFTLKEEGQMLFGGHEIVPAGVL | -0.282 |

| Sequence | soluble fraction (log2) |
| --- | --- |
| HMQQRTVEHVDTAVEALALSIGERAGVDLPYMAHLTGKTQEDLIEDLTGVIFPVPGTEPLRYVTADDYLS | -0.835 |
| HMGGNVYAYRLTASVKSGEQIPANKIEKVKMLSSDLPTNYVPDTVNVTAYKSKLDLQAGTILSTSLLYEN | 0.247 |
| HMRYNPETTAGRRGLIIKMLDEYGQVNVNELSRYFNVSEVTVRNDLAYLERKNLLIRARGGAIKTE | 0.0289 |
| HMNQRQLQIKQMLDVAQEVFLKQLKTVFPDVSEMTIRRDLILLEDMGYAVRTHGGAVSINRF | -1.2 |
| HMSGLVPAIGTKGEEGYIRESDIPGSNVKNPEEALAYMEWLKTQPSELLIPLYDEQGNVIGQFAVS | -0.681 |
| HMGEGIRIDSTAVVQVGEKMYAYLGGDGFSKEFWTNLPASGELAVTLKFEPIPMDAESLDFYEMPA | 0.154 |
| HMQDGVNLENIEQKLSTLGVGKAQYFLQNVGGNKFNAYMALNTDGVEGYQKGSDTLIEIKNVE | 0.0934 |
| HMSDDLLTGLDAYSRGDWTTATASFERVLTTADPNNRTEALYWLVMSETSAQNYQRALNYANTFL | -0.887 |
| HMSMHVHTPNPDFKPSNTNALQEGQLVEHPKFGFGKVQKIETEGLNKKASIQFEHFGEKTLLLSFAKLRII | -0.167 |
| HMAAIPEQVSEEVVSAVKASGIDPGKVTKEQWTSLLKGRRTALGSSSGKLFMLSKAPVGYTLKAVNA | -0.000834 |
| HMSQLSQIVDAFGGLRPFARALNKPPSTVQYWIEKGGIPASVVSPIMKLSEEKGLGLSRDQVSAAVS | 0.0542 |
| HMAKNSVLTIELWNSTAFKWRKDTEPYSESMSVDFNRSVRLTDGISIMFSKFGFVPGIQYLIPLQT | -0.331 |
| HMAPAPYLVKVTANKLNIRSGPGTNYKIQGAITDKGTYTIVDTQGRWGKLKSGAGWIYLNYTKK | 0.22 |
| HMTQEHDESVNLGKRLLDQALSRFGTSYRQLKKSEIKRILQSSGASTFKYILHQIGLGNRVPLAIANLIV | -0.0152 |
| HMEKERYDTGIGELNRVLGGGLVKGSLILISGDPGIGKSTLLLQTANNISKKYGKVLYVSGEESEEQIKIR | -0.722 |
| HMPHILEITSSKILDELQDEKKMVYFHFEKQSNQYVYRLIFNSKNELMEFKKSLEKNSSILDVRADM | -0.354 |
| HMTKVMVPNVVGMSRGEAEEALRGVKLQVDLKREVSDDPEVKPEEVLRQTPDAQTSVPQGSVVTLYVADKP | -0.407 |
| HMNFTEAEQRFHFLEDQRQRGVLSLEQYRAELAQLRVTDAWGRLWMLQEQTGQWFVFHEGQWRPSQ | -0.266 |
| HMDGASVQRITELTATLNRYRHEYYNLAKPSVSDAVYDRLFDELAALEQKTGIVLSNSPTQTV | -0.759 |
| HMATFTPYLVRITASVLNIRKGPGTTYAVTGQIKDRGVYTIVEQKGNWGRLKSGAGWISLSYTKK | 0.065 |
| HMGDPVRVDKFLHDMNVGTRSQIRKLIKEKAVFVNDVVAKSGRVKVDPVVDQVRLGEQVITYQ | 0.0055 |
| HMSNRFIQFRQRAIDWLNSDRDFNAGILLLEESGFKPGVVAKLKRHGVNGPEAKKRLKFLINELVKAWA | -0.374 |
| HMKPGWEDIFRMNQIQLEDAVRTVNRDDTLAPTKKAYLIQNLLASRWIVGNQLQAQKDKTTE | -0.335 |
| HMSHPNAPLTPEGRRRLAVLIVEDGWTIRRAAERFQVSPATASKWARRYRAGESLTDRSSRP | 0.0223 |
